The source of these data is the nanobody polyreactivity screen of Harvey et al. (2022).

This data set can be described thus: yeast display, Sf9 membrane polyspecificity reagent, FACS + sequencing; frameworks hold sequencing errors. The method, boiled down:
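Nanobodies from a synthetic yeast display library (Saccharomyces cerevisiae BJ5465), induced 36–48 hours with galactose, were stained 1 hour at 4 °C with 10% biotinylated, detergent-solubilized Sf9 membrane reagent, enriched on streptavidin microbeads, then FACS-sorted. Anti-HA (expression) and streptavidin (reagent binding) fluorescence set low and high (top ~1%) gates. Polyreactivity labels come from the gate of origin. Genes were colony-PCR amplified, MiSeq 2 × 250 sequenced and filtered by CDR length.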
In the case of “QVQLVESGGGLVQAGGSLRLSCAASGRTFHGYGMGWYRQAPGKERELVAAISWSGGSTYYADSVKGRFTISRDNAKNTVYLHMNSLKAEDTAVYYCAADVYRYWISEYDDYWGQGTQVTVSS”, the “polyreactivity (PSR sort gate)” value was “low polyreactivity”.

As to “QVQLVESGGGLVQAGGSLRLSCAASGRTFHHNTMGWYRQAPGKERELVAAISSGGSTNYADSVKGRFTISRDNAKNTVYLQMNSLKPEDTAVYYCNADGGFLQRTGYDYWGQGTQVTVSS”, the “polyreactivity (PSR sort gate)” value is recorded as “low polyreactivity”.

In the case of “QVQLVESGGGLVQAGGSLRLSCAASGRTFHIYAMGWYRQAPGKERELLAAINYSGGSTYYADSVKGRFTISRDNAKNSVYLQMNSLKPEDTAVLYCAAVVYNVPWWFEYDYWGQGTQVTVSS”, the “polyreactivity (PSR sort gate)” value is “low polyreactivity”.

In the case of “QVQLVESGGGLVQAGGSLRLSCAASGRTFHPYAMGWYRQAPGKERELVAAITISTNYADSVKGRFTISRDNAKNTVYLQMNSLKPEDTAVYYCNKDGTHEVYVGGYEDDYWGQGTQVTVSS”, the “polyreactivity (PSR sort gate)” value is on record as “low polyreactivity”.

As for “QVQLVESGGGLVQAGGSLRLSCAASGRTFHRYVMGWYRQAPGKERELVAAITSGGRTTYADSVKGRFTISRDNAKNTVYLQMNSLKPEDTAVYYCAAELTVRGTWVQQRTFRYDYWGQGTQVTVSS”, the “polyreactivity (PSR sort gate)” value is “low polyreactivity”.

Turning to “QVQLVESGGGLVQAGGSLRLSCAASGRTFHSYAMGWYRQAPGKERELVAAINNGGGTYYADSVKGRFTISRDNAKNTVYLQMNSLKPEDTAVYYCAADRYRYRYNAPRYAYDYWGQGTQVTVSS”, the “polyreactivity (PSR sort gate)” value is recorded as “high polyreactivity”.

Turning to “QVQLVESGGGLVQAGGSLRLSCAASGRTFHYYAMGWYRQAPGKERELVAAISSTGGSTYYADSVKGRFTISRDNAKHPVYVQMNSLKPADTAVYSCAARQFGYYHVRNEYWGQGTQVTVSS”, the “polyreactivity (PSR sort gate)” value is “high polyreactivity”.

Consider “QVQLVESGGGLVQAGGSLRLSCAASGRTFHYYAMGWYRQAPGKERELVASITYNGGDTYYADSVKGRFTISRDNAKNTVYLQMNSLKPEDTAVYYCAAEYYGHRYDYWGQGTQVTVSS”, for which the “polyreactivity (PSR sort gate)” value is on record as “low polyreactivity”.

With “QVQLVESGGGLVQAGGSLRLSCAASGRTFIEYAMGWYRQAPGKERELVAAISRNDGGSTYYADSVKGRFTISRDNAKNTVYLQMNSLKPEDTAVYYCAARRYISAHVRYGSWGQGTQVTVSS”, the “polyreactivity (PSR sort gate)” value is “high polyreactivity”.

Turning to “QVQLVESGGGLVQAGGSLRLSCAASGRTFIFNAMGWYRQAPGKERELVAAISSGGGTNYADSVKGRFTISRDNAKNTVYLQMNSLKPEVTAVYYCAADPRDHYSYVYDGYKYDYWGQGTQVTVSS”, the “polyreactivity (PSR sort gate)” value was “low polyreactivity”.

Regarding “QVQLVESGGGLVQAGGSLRLSCAASGRTFIGYAMGWYRHAPGKERELVATISVSGGSTYYADSVKGRFTISRDNAKNTVYLQMKSLKPEDTAVYYCDKAYLRYYDGPYDYWGQGTQVTVSS”, the “polyreactivity (PSR sort gate)” value was “low polyreactivity”.

“QVQLVESGGGLVQAGGSLRLSCAASGRTFIGYAMGWYRQAPGKERELVAASSSGGNTYYADSVKGRFTISRDNAKNTVYLQMNSLKPEDTAVYYCAAKGYRRVARYFIGDYWGQGTQVTVSS”: the “polyreactivity (PSR sort gate)” value is listed as “low polyreactivity”.

For “QVQLVESGGGLVQAGGSLRLSCAASGRTFIGYAMGWYRQAPGKERELVATISVSGGSTYYADSVKGRFTISRDNAKNTVYLQMNSLKPEVTAVYYCAKAYLRYYDGPYDYWGHGTQVTVSS”, the “polyreactivity (PSR sort gate)” value is recorded as “low polyreactivity”.

With “QVQLVESGGGLVQAGGSLRLSCAASGRTFIINTMGWYRQAHGKERELVAAISKNGATTNYADSVKGRFTISRDNAKNTVYFQMNSLKPEDTAVYYCNARYSGYLRLDYWGQGTQVTVSS”, the “polyreactivity (PSR sort gate)” value is “low polyreactivity”.

Consider “QVQLVESGGGLVQAGGSLRLSCAASGRTFIKNAMGWYRQAPGKERELVAAINWSGTRTYYADSVKGRFTISRDNAKNTVYLQMNSLKPEDTAVYYCAKVIARYVRYDYWGQGTQVTVSS”, for which the “polyreactivity (PSR sort gate)” value is given as “high polyreactivity”.

As to “QVQLVESGGGLVQAGGSLRLSCAASGRTFILYAMGWYRQAPGKERELVAAITRRGGRTYYADSVKGRFTISRDNAKNTVYLQMNSLKPEDTAVYYCAADQYYYTQPSDMDYWGQGTQVTVSS”, the “polyreactivity (PSR sort gate)” value is “high polyreactivity”.

As for “QVQLVESGGGLVQAGGSLRLSCAASGRTFIRNAMGWYRQAPGKERELVAAISGTGGSTYYADSVKGRLTISRDNAKNTVYLQMNSLKPEDTAVYYCAADRPAPGYDYWGQGTQVTVSS”, the “polyreactivity (PSR sort gate)” value is “low polyreactivity”.

“QVQLVESGGGLVQAGGSLRLSCAASGRTFIRNVMGWYRQAPGKERELVAAISTRGGSTYYADSVKGRFTISRDIAKNTVYLQMNSMKPEDTAVYYCASVIRCRYSYYEYDYWGQGTQETVSS”: the “polyreactivity (PSR sort gate)” value is on record as “high polyreactivity”.

For “QVQLVESGGGLVQAGGSLRLSCAASGRTFISYAMGWYRQAPGKERELVAAISGRGGSTYFADSVKGRFTISRDNAKNTVYLQMNSLKQEDTAVYYCAAEWFGVYRRYKYDYWGQGTQVTVSS”, the “polyreactivity (PSR sort gate)” value was “low polyreactivity”.

In the case of “QVQLVESGGGLVQAGGSLRLSCAASGRTFIVYAMGWYRQAPGKERELVAAITRSGSSTYYADSVKGRFTISRDNAKNTVYLQMNSLKPEDTAVYYCAADVGFGGYSHFDPYEYWGQGTQVTVSS”, the “polyreactivity (PSR sort gate)” value is listed as “high polyreactivity”.

Consider “QVQLVESGGGLVQAGGSLRLSCAASGRTFIWNAMGWYRQAPGKERELVADISIRGGSTNYADSVKGRFTISRDNAKNTVYFQMNSLKPEDTAVYYCAAEYYDSGNDYWGQGTQVTVSS”, for which the “polyreactivity (PSR sort gate)” value is “low polyreactivity”.

As to “QVQLVESGGGLVQAGGSLRLSCAASGRTFIYNAMAWYRQAPWKERELVAGITRSGGSTYYADSVKGRFTISRDNAKNTVYLQMNSLKPEDTAVYYCAAARRTKTFSSYYYWGQGTQVTVSS”, the “polyreactivity (PSR sort gate)” value is listed as “high polyreactivity”.

Turning to “QVQLVESGGGLVQAGGSLRLSCAASGRTFIYYAMGWYRQAPGKERELVAAISRSGGSTYYADSVKGRFTISRDNAKNTVYLQMNSLKPEDTAVYYCAAADPLGYEYDSWGQGTQVTVSS”, the “polyreactivity (PSR sort gate)” value is given as “high polyreactivity”.

Turning to “QVQLVESGGGLVQAGGSLRLSCAASGRTFIYYAMGWYRQAPGKERELVAGISRNGGRTYYADSVKGRFTISRDNAKNTVYLQMNSLKPEDTAVYYCNARTYSYRGYNYWGQGTQVTVSS”, the “polyreactivity (PSR sort gate)” value is recorded as “high polyreactivity”.

As to “QVQLVESGGGLVQAGGSLRLSCAASGRTFKDYAMGWYRQAPGKERELVAAISWSGGDTYYADSVKGRFTISRDNAKNTVYLQMNSLKPEDTAVYYCNADPSGVFFYSLEFDYWGQGTQVTVSS”, the “polyreactivity (PSR sort gate)” value was “low polyreactivity”.

For the sequence “QVQLVESGGGLVQAGGSLRLSCAASGRTFKFYAMGWDRQAPGSDRELVAAISSSGGRTYYADSVKGRFTISRDNAKNTVYLQMNSLKPEDTAVYYCAAVPGSKFVQKDDYWGQGTQVTVSS”, the “polyreactivity (PSR sort gate)” value is listed as “low polyreactivity”.

Take “QVQLVESGGGLVQAGGSLRLSCAASGRTFKFYAMGWYRQAPGKERELVAGIGSGGRTYYADSVKGRFTISRYNAKNTVYLHMNSLKPEDTAVYYCAARQYGPRYTYYYWGQGTQVTVSS”: the “polyreactivity (PSR sort gate)” value is reported as “high polyreactivity”.

In the case of “QVQLVESGGGLVQAGGSLRLSCAASGRTFKGYAMGWYRQAPGKEREFVATITSRGDRTYYADSVKGRFTISRDNAKNTVSLQMNSLKPEDTAVYYCNARYYWKQAADYNYWGQGTQVTVSS”, the “polyreactivity (PSR sort gate)” value is “low polyreactivity”.

For “QVQLVESGGGLVQAGGSLRLSCAASGRTFKGYAMGWYRQAPGKERELVAAITGSVGSTYYADSVKGRFTISRDNAKNTVYLQMNSLKPEDTAVYYCAKRWKATRARYDYWGLGTQVTVSS”, the “polyreactivity (PSR sort gate)” value is reported as “high polyreactivity”.

With “QVQLVESGGGLVQAGGSLRLSCAASGRTFKINAMGWYRQAPGKERELVATITGRGASTYYADSVKGRFTISRDNAKNTVYLQMNSLKPEDTAVYYCAARTEVPTRYNYWGQGTQVTVSS”, the “polyreactivity (PSR sort gate)” value is reported as “high polyreactivity”.

“QVQLVESGGGLVQAGGSLRLSCAASGRTFKIYAMGWYRQAPGKERELVAAISRGGRTYYADSVKGRFTISRDNAKNTVYLQMNSLKPEDTAVYYCAADLLISPEFYYWGQGTQVTVSS”: the “polyreactivity (PSR sort gate)” value was “high polyreactivity”.

As to “QVQLVESGGGLVQAGGSLRLSCAASGRTFKKYAMGWYRQAPGKERELVAAITGSGGSTYYADSVKGRFTISRDNAKNTVYLQMNILTPEDTAVYYCAAYAYGVWHSQDGGNYWGQCTQVTVSS”, the “polyreactivity (PSR sort gate)” value is given as “low polyreactivity”.

As to “QVQLVESGGGLVQAGGSLRLSCAASGRTFKKYAMGWYRQAPGKEREVVAAITSRVGSTSYADSVKGRFTISRDNAKNTVYLQMNSLKPEDTAVYYCAARYSVGTGYGYWGQGTQVTVSS”, the “polyreactivity (PSR sort gate)” value was “high polyreactivity”.

With “QVQLVESGGGLVQAGGSLRLSCAASGRTFKPYAMGWYRQAPGKERELVAAISTRGGSTYYADSVKGRFTISRDNAKNTVYLQMNSLKPEDTAVYYCAATQPGRDYDYWGQGTQVTVSS”, the “polyreactivity (PSR sort gate)” value is “low polyreactivity”.

“QVQLVESGGGLVQAGGSLRLSCAASGRTFKSYAMGWYRQAPGKERELVAAISKRGGSTYYADSVKGRFTISRDNAKNTVYLQMNSLKPEDTAVYYCAADARYRSYSLLVRPGRYYYWGQGTQVTVSS”: the “polyreactivity (PSR sort gate)” value is “high polyreactivity”.

Take “QVQLVESGGGLVQAGGSLRLSCAASGRTFKSYAMGWYRQAPGKERELVAAISYSGGSTYYADSVKGRFTISRDNAKNTVYLQMNSLKPEDTAVYYCNVVSKVIRGLSGDGYWGQGTQVTVSS”: the “polyreactivity (PSR sort gate)” value is recorded as “high polyreactivity”.

With “QVQLVESGGGLVQAGGSLRLSCAASGRTFKTYAMGWYRQAPGKERELVAAISRDGRTYYADSVKGRFTISRDNAMNTVYLQMNSLKPEDTAVYYCNKRSYRKGDYWGQGTQVTVSS”, the “polyreactivity (PSR sort gate)” value is “low polyreactivity”.

On to “QVQLVESGGGLVQAGGSLRLSCAASGRTFKVYAMGWYRQAPGKERELVAAISDRGGSTYYADSVKGRFTISRDNAKNSVYLQMNSLKPEDTAVYYCSAEYARSTWRAYPELDYWGQGTQVTVSS”, for which the “polyreactivity (PSR sort gate)” value is recorded as “low polyreactivity”.

Regarding “QVQLVESGGGLVQAGGSLRLSCAASGRTFKYNTMGWYRQAPGKERELVAVISRSGGRTYYADSVKGRFTISRDNAKNTVYLQMNSLKPEDTAVYYCAKGIPYADPQSAYDDYWGQGTQVTVSS”, the “polyreactivity (PSR sort gate)” value is “high polyreactivity”.

As for “QVQLVESGGGLVQAGGSLRLSCAASGRTFKYYAMGWSRQAPGKERELVATISSGGSTNYADSVKGRFTISRDNAKNTVYLQMNSLKPEDTAVYYCADTIGHNGFDYWGQGTQVTVSS”, the “polyreactivity (PSR sort gate)” value is “low polyreactivity”.
